B1: LINE1-mini (parent)
chain: GGCAGAGCUCAACACAGCGUGGCAAAGUGGCUGUGGCUAGACUGCC

Variants of: B1
Assay: self-cleavage, relative activity (ratio to wild type); higher = more cleavage; in vitro, sequencing; the parent is a self-cleaving ribozyme
Work on GGCAGAGCUCAACACAGCGUGGCAGAGUGGCUGUGGGUAGACUGCC [A25G C37G] yielded a self-cleavage of 0.03. GGCAGAGCUCAACACCGCGUGGCAAAGUGGCUGUGGCUAGACUGCA [A16C C46A] gave a self-cleavage of 0.1. For GGCAGAGCUCAACACAGCGUGGCAAAGUGGAUGUGGCGAGACUGCC [C31A U38G], the self-cleavage was 0.03. With GGCAGAGCUCAACACAGCGUGGCAAAGUAGCUGUGGCUAGAUUGCC [G29A C42U] the self-cleavage was 0.42. For GGCAAAGCUCUACACAGCGUGGCAAAGUGGCUGUGGCUAGACUGCC [G5A A11U], the self-cleavage was 0.04. Work on GGCAGAGCUCAACACAGCGUGUCAAAGUGGUUGUGGCUAGACUGCC [G22U C31U] yielded a self-cleavage of 0.4. For GGCAGAGCUUAACACAGCGUGCCAAAGUGGCUGUGGCUAGACUGCC [C10U G22C], the self-cleavage was 0.18. With GGCUGAGCUCAACACAGCGUGGCAAAGUGGCUGUGGCUAGACUCCC [A4U G44C] the self-cleavage was 0.12. UGCAGAGCUCAACACAGCGGGGCAAAGUGGCUGUGGCUAGACUGCC [G1U U20G] showed a self-cleavage of 0.16. GGCAGAGCUCAAUACAGCGUGGCAAAGUGGCUGUGGCUAGACGGCC [C13U U43G] showed a self-cleavage of 2.25. GACAGAGCUCAACACAGCGUGGCAAAGCGGCUGUGGCUAGACUGCC [G2A U28C] gave a self-cleavage of 0.64. In the case of GGCAGAGCUCAACACAGCGUGGCAAAGUGGCUGUGGGUAGACUGGC [C37G C45G], the self-cleavage is reported as 0.08. For CGCAGAGCUCAACACAGCGUGGCAAAGUGCCUGUGGCUAGACUGCC [G1C G30C], the self-cleavage was 0.04. Variant GGCAUAGCUCAACGCAGCGUGGCAAAGUGGCUGUGGCUAGACUGCC [G5U A14G] has a self-cleavage of 0.06. Variant GGCAGAGCUCAUCACAGCGUGGCAAAGUGGCUGCGGCUAGACUGCC [A12U U34C] has a self-cleavage of 0.03. GGUAGAGCUCAACACAGCGUGGCAAAGUGGCUGUGGCUAGACUCCC [C3U G44C] gave a self-cleavage of 0.35. GGCAGAGCUAAACACAGCGUGGCAAAGUGGCUGUGGCUAGACUGCC [C10A] showed a self-cleavage of 0.07. For GGCAGAGAUCAACACAGCGUGGCAAAGUGGCAGUGGCUAGACUGCC [C8A U32A], the self-cleavage was 0.16. In the case of GGAAGAGCUCAACACAGCGUGGCAUAGUGGCUGUGGCUAGACUGCC [C3A A25U], the self-cleavage is reported as 0.79. GGCAGAGCUCAACACAGCGGGGCAAAGUGGCUGCGGCUAGACUGCC [U20G U34C] gave a self-cleavage of 0.39. Variant GGCAGAGCUGAACACAGCGUGGCAAAGUGGCUGUCGCUAGACUGCC [C10G G35C] has a self-cleavage of 0.02. Work on GGCAGAGCUCAACAUAGCGUGGCAAAGUGGCUGUGGCUAGACUGCG [C15U C46G] yielded a self-cleavage of 0.33. GGCAGAGCUCAACACAGAGUGUCAAAGUGGCUGUGGCUAGACUGCC [C18A G22U] showed a self-cleavage of 1.74. GGCAGAGCUCAACACACCGUGGAAAAGUGGCUGUGGCUAGACUGCC [G17C C23A] gave a self-cleavage of 1.07. Work on GGCAGAGCUCAACGCAGCGUGGCAAAGUGGCUGUGGCUACACUGCC [A14G G40C] yielded a self-cleavage of 0.09. Work on GGCAGAGCUCAACACAGCGUGGCAAAGUGGCUGUGUCUAGACCGCC [G36U U43C] yielded a self-cleavage of 0.06. GGAAGAGCUCAACAGAGCGUGGCAAAGUGGCUGUGGCUAGACUGCC [C3A C15G] gave a self-cleavage of 0.09. Variant GGCAGAGCUCAAUGCAGCGUGGCAAAGUGGCUGUGGCUAGACUGCC [C13U A14G] has a self-cleavage of 0.17. GGCAGAGCUCAACGCAGCGUGGCAAAGUGUCUGUGGCUAGACUGCC [A14G G30U] showed a self-cleavage of 0.34. Variant UGCAGAGCUCGACACAGCGUGGCAAAGUGGCUGUGGCUAGACUGCC [G1U A11G] has a self-cleavage of 0.02. With GGCAGAGCUCAACACAGCGUGGCAAAGUGGCUGCCGCUAGACUGCC [U34C G35C] the self-cleavage was 0.06. Work on GGCAGAUCUCAACACAGCGUGGCAAAGUGGCUUUGGCUAGACUGCC [G7U G33U] yielded a self-cleavage of 0.13. Work on GGCAGAGCCCAACACAGCGUGGGAAAGUGGCUGUGGCUAGACUGCC [U9C C23G] yielded a self-cleavage of 0.03. In the case of GGCAGAGCUCAACACAGCGUCGCAAAGUGGCUGUGGCUAGACUGCG [G21C C46G], the self-cleavage is reported as 0.51. GGCAGAGCUCAACACAGCGUGGCAAAGUGGCUUUUGCUAGACUGCC [G33U G35U] showed a self-cleavage of 0.11. In the case of GGCAGAGCUCAACACAGCGUAGCAAAGUGGCUGUGGCUAGGCUGCC [G21A A41G], the self-cleavage is reported as 0.44. With GGCAGAGCUCAACACAGGGUGGCAAAGUGGAUGUGGCUAGACUGCC [C18G C31A] the self-cleavage was 0.06. GGCCGAGCUCAACACAGCGUGACAAAGUGGCUGUGGCUAGACUGCC [A4C G22A] gave a self-cleavage of 0.09. Work on GGCAGAGCUCAACACAGCGUGGCAAAGUGGCUGUGGCUAGUCAGCC [A41U U43A] yielded a self-cleavage of 0.17. GGGAGAGCUCAACACAGCGUGGCAAAGUGGCUGUAGCUAGACUGCC [C3G G35A] gave a self-cleavage of 0.23. With GGCAGAGCUCAACACAGCGUGUCAAAGUGGCUGUGGCGAGACUGCC [G22U U38G] the self-cleavage was 0.04. Variant GGCAGAGCUCAACACAGCGAUGCAAAGUGGCUGUGGCUAGACUGCC [U20A G21U] has a self-cleavage of 0.69. Work on GGCAGACCUCAACACAGCGUGGCAAAGUGGCUGUGGCUAGGCUGCC [G7C A41G] yielded a self-cleavage of 0.04. GGCAGAGCUCAACACAGCGUGGCGAAGUGGCUGUGGCGAGACUGCC [A24G U38G] gave a self-cleavage of 0.03. Variant GGCAGAGCUCAACACAGCCUGACAAAGUGGCUGUGGCUAGACUGCC [G19C G22A] has a self-cleavage of 0.39. Variant GGCAGAGCCCAACACAGCGUGGCAAAGUGGCUGUGGCUAGACUUCC [U9C G44U] has a self-cleavage of 0.02. With GGCAGAGCUCAACACAGCGUGGCAAAGUAGCUGUGGCUACACUGCC [G29A G40C] the self-cleavage was 0.08. In the case of GGCAAAGCUCAACACAGCGUGCCAAAGUGGCUGUGGCUAGACUGCC [G5A G22C], the self-cleavage is reported as 0.13. With GGCAGAGCUUAACACAGCGUGGCAAAGUUGCUGUGGCUAGACUGCC [C10U G29U] the self-cleavage was 0.39. For GGCAGACCUCAACACCGCGUGGCAAAGUGGCUGUGGCUAGACUGCC [G7C A16C], the self-cleavage was 0.11. For GGCAGAGCUCAACACAGCGUGGCAAAGUGGCUGUUGCUAGACUUCC [G35U G44U], the self-cleavage was 0.11. In the case of GGCAGAGCUCAACACAGCCUGGCAAAGUGGCUGUGGCUAGACUGCU [G19C C46U], the self-cleavage is reported as 1.42. GACAGAGCUCAACACAGCGUGGCAAAGUGGCUGGGGCUAGACUGCC [G2A U34G] gave a self-cleavage of 0.13. Work on GGCAGAGCUCAACACCGCGUGGGAAAGUGGCUGUGGCUAGACUGCC [A16C C23G] yielded a self-cleavage of 0.08. In the case of GGCAGAGCUCAACACAGCAUGGCAAAGUGGCUGUGGCUAGACUGCA [G19A C46A], the self-cleavage is reported as 0.81. Work on GGCAGAGCUCAACACAGCGUGGCAAAGUGGCUGGGGCUAGACUCCC [U34G G44C] yielded a self-cleavage of 0.07.

— the RNAGym collection of RNA variant scans (doi:10.7554/elife.90254)
